Results from patent US9725518B2, “Antibodies that bind to Jagged 1” (Cancer Research Technology Limited, priority 2013, dated 2017).

How the values were obtained:
[1] = Soluble aggregates of transiently expressed antibodies; format: physicochemical; settings: Protein A purified antibody
Source text: The protein yield of these antibodies, their levels of soluble aggregates and their binding affinity to the immunogen (J1-DE3) are illustrated in (Table 6).

[2] = target: T1, N1 binding to cell surface expressed hJ1 (Homo sapiens, UniProt P78504); assay: Notch binding blocking assay (FACS): N1 EGF11-13 beads staining human J1-expressing cells; set-up: key: +: Complete blocking; X: No blocking
T1 construct: cell expressed full length human J1 (hJ1; HEK293 transfectants); expressed in transfected cells; host or cells: HEK293
Method: To functionally identify mAbs with the capacity to disrupt the J1-N1 protein:protein interaction, hybridoma culture supernatants were tested in a FACS-based binding assay. Biotinylated soluble human N1 EGF11-13 recombinant protein was bound to avidin-coated beads and used to stain J1-expressing cells in the presence or absence of each mAb that recognised cell surface hJ1 by FACS. […] The four blocking antibodies of the invention were also able to block the binding of recombinant […] to a biotin-tagged J1 DSL-EGF3 recombinant protein in an ELISA assay (FIG. 1B). […] The four blocking mAbs of the invention were purified from serum-free culture supernatants and equal concentrations of purified antibodies were used to compare their activity in subsequent assays (unless hybridoma supernatant was specified). Sequence conservation across the DSL domain raised the possibility that the J1 mAbs may also be able to bind the Jagged 2 (J2) protein. Antibody binding specificity was initially tested by immunocytochemical labelling of cytospin samples of hJ1 and hJ2 transfectants (FIG. 2). All antibodies stained J1 transfectants but none stained the J2 transfected cells, and J2 expression in the same experiment was confirmed using a commercial anti-J2 antibody. The specificity of the purified mAbs was further investigated in mammalian cells transfected with hJ2, human Delta-like ligand 4 (hDLL4), or mJ1 (FIG. 3). Transfectants were FACS stained with 10 μg/ml of each of the four blocking mAbs.
To test the blocking efficiencies of the J1 mAbs, purified mAbs were titrated to determine the concentration required to block recombinant N1 binding to cell surface expressed hJ1. Beads coated with a bacterially-expressed N1 EGF11-13 protein were used to stain the hJ1-expressing cells in the presence of various concentrations of mAbs.
The FACS-based binding assay using biotinylated soluble human N1 EGF11-13 recombinant protein bound to avidin-coated fluorescent beads to stain J1-expressing cells was performed using a dilution series of each variant mAb to test their ability to block J1 binding to N1 by FACS (Table 7). […] Thus 12/16 J1-65D1 variants V1-12 and all J1-183D variants have the desired binding and blocking activity.
Human N1 EGF11-13 (411-526) was expressed in E. coli, refolded in vitro and labelled with purple fluorescent avidin-coated beads (Spherotech) as previously described. HEK293 cells transfected with human J1 or B16F10 cells transfected with mouse J1 were stained with N1 fluorescent beads in the presence of J1 antibody supernatants or purified antibody (murine, chimeric or humanised) diluted in HBBS/10% FCS. Cells were washed and re-suspended in staining buffer before being analysed with a FACSCalibur and data analysis with CellQuest. HEK293 cells transfected with human Jagged 2 and B16F10 cells transfected with human and mouse DLL4 were stained similarly to test blocking specificity.

[3] = final antibody concentration 0.2 μg/ml
[4] = final antibody concentration 0.4 μg/ml
[5] = final antibody concentration 0.6 μg/ml
[6] = final antibody concentration 1.0 μg/ml

T1 sequence (P78504 34-1218): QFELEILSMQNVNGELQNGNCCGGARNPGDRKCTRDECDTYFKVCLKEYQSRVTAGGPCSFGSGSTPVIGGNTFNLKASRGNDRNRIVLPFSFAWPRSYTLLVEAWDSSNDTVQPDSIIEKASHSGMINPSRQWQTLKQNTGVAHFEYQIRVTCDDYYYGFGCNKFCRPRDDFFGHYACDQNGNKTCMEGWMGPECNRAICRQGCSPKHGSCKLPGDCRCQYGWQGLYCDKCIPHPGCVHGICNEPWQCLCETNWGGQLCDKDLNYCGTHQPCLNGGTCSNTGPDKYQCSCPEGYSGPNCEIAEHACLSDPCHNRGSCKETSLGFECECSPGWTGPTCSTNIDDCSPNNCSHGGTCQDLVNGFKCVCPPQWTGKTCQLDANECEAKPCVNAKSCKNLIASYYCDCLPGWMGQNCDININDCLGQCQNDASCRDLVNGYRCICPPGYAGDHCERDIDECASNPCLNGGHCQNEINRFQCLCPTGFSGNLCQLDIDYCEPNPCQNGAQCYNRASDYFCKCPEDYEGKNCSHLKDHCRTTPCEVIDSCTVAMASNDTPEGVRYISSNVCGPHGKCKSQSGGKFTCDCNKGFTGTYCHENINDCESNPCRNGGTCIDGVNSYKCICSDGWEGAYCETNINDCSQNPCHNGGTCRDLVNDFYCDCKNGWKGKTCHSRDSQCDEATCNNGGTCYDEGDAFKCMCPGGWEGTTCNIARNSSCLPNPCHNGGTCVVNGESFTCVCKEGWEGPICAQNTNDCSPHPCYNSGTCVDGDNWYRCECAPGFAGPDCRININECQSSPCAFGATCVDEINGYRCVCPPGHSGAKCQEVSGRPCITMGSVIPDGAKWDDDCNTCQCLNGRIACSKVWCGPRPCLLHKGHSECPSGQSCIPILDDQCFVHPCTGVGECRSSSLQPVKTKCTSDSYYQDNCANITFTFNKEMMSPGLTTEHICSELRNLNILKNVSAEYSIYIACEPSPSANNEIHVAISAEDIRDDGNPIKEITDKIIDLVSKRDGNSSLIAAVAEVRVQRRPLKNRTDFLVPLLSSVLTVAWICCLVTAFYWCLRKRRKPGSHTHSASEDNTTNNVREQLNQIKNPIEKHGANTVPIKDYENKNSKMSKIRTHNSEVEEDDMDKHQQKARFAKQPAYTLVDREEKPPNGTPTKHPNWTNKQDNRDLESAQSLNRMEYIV

Blocking of Notch1 binding to cell surface Jagged 1 [2, 3] | Blocking of Notch1 binding to cell surface Jagged 1 [2, 4] | Blocking of Notch1 binding to cell surface Jagged 1 [2, 5] | Blocking of Notch1 binding to cell surface Jagged 1 [2, 6] | Molecule | % soluble aggregate [1]
X | + (Complete blocking) | + (Complete blocking) | + (Complete blocking) | J1-183D variant 3: humanised/de-immunised J1-183D: J1-183D_VL_1 + J1-183D_VH_3 (antibody, V domains shown) VH: QVQLVQSGAELKKPGASVKVSCKVSGYAFTDYAIHWVRQAPGQGLEWMGIINTYYGDSKYAQKFQGRVTMTVDTSTSTAYMELSSLRSEDTAVYYCARGYDGFAYWGQGTLVTVSSASTKGP VL: DIQMTQSPSSLSASVGDRVTITCRTSENIYSYLTWYQQKPGKAPKLLVYNAKILAAGVPSRFSGSGSGTDFTLTISSLQPEDFATYYCQHHYDIPWTFGGGTKLEIKRT | 2.87%
X | + (Complete blocking) | + (Complete blocking) | + (Complete blocking) | J1-183D variant 13: humanised/de-immunised J1-183D: J1-183D_VL_4 + J1-183D_VH_1 (antibody, V domains shown) VH: QVQLVQSGAELKKPGASVKVSCKVSGYAFTDYAIHWIRQAPGQGLEWMGIINTYYGDSKYNQKFKDRVTMTVDKSTSTAYMELSSLRSEDTAVYYCARGYDGFAYWGQGTLVTVSSASTKGP VL: DIQMTQSPSSLSASVGDRVTITCRTSENIYSYLTWYQQKPGKAPKLLIYHAKILDSGVPSRFSGSGSGTDFTLTISSLQPEDFATYYCQHHYDIPWTFGGGTKLEIKRT | 3.43%
X | + (Complete blocking) | + (Complete blocking) | + (Complete blocking) | J1-183D variant 7: humanised/de-immunised J1-183D: J1-183D_VL_2 + J1-183D_VH_3 (antibody, V domains shown) VH: QVQLVQSGAELKKPGASVKVSCKVSGYAFTDYAIHWVRQAPGQGLEWMGIINTYYGDSKYAQKFQGRVTMTVDTSTSTAYMELSSLRSEDTAVYYCARGYDGFAYWGQGTLVTVSSASTKGP VL: DIQMTQSPSSLSASVGDRVTITCRTSENIYSYLTWYQQKPGKAPKLLIYNAKTLASGVPSRFSGSGSGTDFTLTISSLQPEDFATYYCQHHYDIPWTFGGGTKLEIKRT | 3.92%
X | + (Complete blocking) | + (Complete blocking) | + (Complete blocking) | J1-183D variant 5: humanised/de-immunised J1-183D: J1-183D_VL_2 + J1-183D_VH_1 (antibody, V domains shown) VH: QVQLVQSGAELKKPGASVKVSCKVSGYAFTDYAIHWIRQAPGQGLEWMGIINTYYGDSKYNQKFKDRVTMTVDKSTSTAYMELSSLRSEDTAVYYCARGYDGFAYWGQGTLVTVSSASTKGP VL: DIQMTQSPSSLSASVGDRVTITCRTSENIYSYLTWYQQKPGKAPKLLIYNAKTLASGVPSRFSGSGSGTDFTLTISSLQPEDFATYYCQHHYDIPWTFGGGTKLEIKRT | 4.38%

Further lines, the molecule ahead of its results:

Molecule | Blocking of Notch1 binding to cell surface Jagged 1 [2, 3] | Blocking of Notch1 binding to cell surface Jagged 1 [2, 4] | Blocking of Notch1 binding to cell surface Jagged 1 [2, 5] | Blocking of Notch1 binding to cell surface Jagged 1 [2, 6] | % soluble aggregate [1]
J1-183D variant 14: humanised/de-immunised J1-183D: J1-183D_VL_4 + J1-183D_VH_2 (antibody, V domains shown) VH: QVQLVQSGAELKKPGASVKVSCKVSGYAFTDYAIHWIRQAPGQGLEWMGIINTYYGDSKYAQKFQGRVTMTVDTSTSTAYMELSSLRSEDTAVYYCARGYDGFAYWGQGTLVTVSSASTKGP VL: DIQMTQSPSSLSASVGDRVTITCRTSENIYSYLTWYQQKPGKAPKLLIYHAKILDSGVPSRFSGSGSGTDFTLTISSLQPEDFATYYCQHHYDIPWTFGGGTKLEIKRT | X | + (Complete blocking) | + (Complete blocking) | + (Complete blocking) | 3.02%
J1-183D variant 11: humanised/de-immunised J1-183D: J1-183D_VL_3 + J1-183D_VH_3 (antibody, V domains shown) VH: QVQLVQSGAELKKPGASVKVSCKVSGYAFTDYAIHWVRQAPGQGLEWMGIINTYYGDSKYAQKFQGRVTMTVDTSTSTAYMELSSLRSEDTAVYYCARGYDGFAYWGQGTLVTVSSASTKGP VL: DIQMTQSPSSLSASVGDRVTITCRTSENIYSYLTWYQQKPGKAPKLLIYNAKILDSGVPSRFSGSGSGTDFTLTISSLQPEDFATYYCQHHYDIPWTFGGGTKLEIKRT | X | + (Complete blocking) | + (Complete blocking) | + (Complete blocking) | 2.5%
J1-183D variant 6: humanised/de-immunised J1-183D: J1-183D_VL_2 + J1-183D_VH_2 (antibody, V domains shown) VH: QVQLVQSGAELKKPGASVKVSCKVSGYAFTDYAIHWIRQAPGQGLEWMGIINTYYGDSKYAQKFQGRVTMTVDTSTSTAYMELSSLRSEDTAVYYCARGYDGFAYWGQGTLVTVSSASTKGP VL: DIQMTQSPSSLSASVGDRVTITCRTSENIYSYLTWYQQKPGKAPKLLIYNAKTLASGVPSRFSGSGSGTDFTLTISSLQPEDFATYYCQHHYDIPWTFGGGTKLEIKRT | X | + (Complete blocking) | + (Complete blocking) | + (Complete blocking) | 4.6%
J1-183D variant 4: humanised/de-immunised J1-183D: J1-183D_VL_1 + J1-183D_VH_4 (antibody, V domains shown) VH: QVQLVQSGAEVKKPGASVKVSCKASGYTFTDYAIHWVRQAPGQGLEWMGIINTYYGDSKYAQKFQGRVTMTVDTSTSTAYMELSSLRSEDTAVYYCARGYDGFAYWGQGTLVTVSSASTKGP VL: DIQMTQSPSSLSASVGDRVTITCRTSENIYSYLTWYQQKPGKAPKLLVYNAKILAAGVPSRFSGSGSGTDFTLTISSLQPEDFATYYCQHHYDIPWTFGGGTKLEIKRT | X | + (Complete blocking) | + (Complete blocking) | + (Complete blocking) | 0.85%
J1-183D variant 10: humanised/de-immunised J1-183D: J1-183D_VL_3 + J1-183D_VH_2 (antibody, V domains shown) VH: QVQLVQSGAELKKPGASVKVSCKVSGYAFTDYAIHWIRQAPGQGLEWMGIINTYYGDSKYAQKFQGRVTMTVDTSTSTAYMELSSLRSEDTAVYYCARGYDGFAYWGQGTLVTVSSASTKGP VL: DIQMTQSPSSLSASVGDRVTITCRTSENIYSYLTWYQQKPGKAPKLLIYNAKILDSGVPSRFSGSGSGTDFTLTISSLQPEDFATYYCQHHYDIPWTFGGGTKLEIKRT | X | + (Complete blocking) | + (Complete blocking) | + (Complete blocking) | 2.89%
